Experiments:
[1] = molecular target: human wild type PCSK9-V5 (prosegment≡PCSK9 complex) in conditioned medium (human) (UniProt Q8NBP7)
[2] = molecular target: human wild type PCSK9-V5 (prosegment≡PCSK9 complex) in conditioned medium (human) (UniProt Q8NBP7); remark: listed apart in the source
[3] = molecular target: PCSK9 D374Y-V5 (gain-of-function natural mutant) (human) (UniProt Q8NBP7)
[4] = molecular target: PCSK9 Δ33-58 D374Y-V5 (human) (UniProt Q8NBP7)
[5] = molecular target: PCSK9 Δ33-58-V5 (lacking the acidic N-terminal region of the prosegment) (human) (UniProt Q8NBP7)
[6] = molecular target: human wild type PCSK9-V5 (prosegment≡PCSK9 complex) in conditioned medium (human) (UniProt Q8NBP7); remark: listed apart in the source

Row | reduction by Fcpro (3 µg/ml, pre-incubated with 1 µg/ml PCSK9, both in HEK293 conditioned media) of the LDLR degradation induced by extracellular PCSK9 in HepG2/shPCSK9 cells, 4 h at 37°C [1] | reversal by co-expressed Fcpro (DNA ratio PCSK9:Fcpro 1:3; ratios up to 1:9 gave no more) of the ∼44% LDLR degradation induced by PCSK9; total LDLR by Western blot of cell lysates [2] | total LDLR level (normalised to β-actin) in HepG2/shPCSK9 cells co-expressing Fcpro and PCSK9 D374Y, against 0.1 with D374Y alone (relative LDLR level) [3] | total LDLR level (normalised to β-actin) in HepG2/shPCSK9 cells co-expressing Fcpro and PCSK9 Δ33-58 D374Y, against 0.08 with Δ33-58 D374Y alone (relative LDLR level) [4] | fold increase of total LDLR on co-expression of Fcpro with PCSK9 Δ33-58 in HepG2/shPCSK9 cells [5] | fold increase of total LDLR on co-expression of Fcpro with wild type PCSK9 in HepG2/shPCSK9 cells [6] | Substance
1 | 60% | – | – | – | – | – | Fcpro (Fc of human IgG1, hinge of human IgG1 and PCSK9 prosegment aa 31-152) (from UniProt Q8NBP7 31-152) (Fc fusion)
2 | – | 75% | 0.44 | 0.31 | 1.4 fold | 1.4 fold | Fcpro expressed in HepG2/shPCSK9 cells (from UniProt Q8NBP7 31-152) (Fc fusion)
